Measurements reported in US20230212239A1, “INHIBITORS OF CBL AUTOINHIBITION AND RELATED METHODS” (THE HOSPITAL FOR SICK CHILDREN, priority 2020, published 2023).
“Also recorded” adds a separate entry of the source.

T1: CBL TKBD-LHR-RING (2-436), unphosphorylated (Homo sapiens, UniProt P22681)
T1 construct: GST (N, cleaved yes); made in house; host or cells: E. coli BL-21
T1 sequence (P22681 2-436): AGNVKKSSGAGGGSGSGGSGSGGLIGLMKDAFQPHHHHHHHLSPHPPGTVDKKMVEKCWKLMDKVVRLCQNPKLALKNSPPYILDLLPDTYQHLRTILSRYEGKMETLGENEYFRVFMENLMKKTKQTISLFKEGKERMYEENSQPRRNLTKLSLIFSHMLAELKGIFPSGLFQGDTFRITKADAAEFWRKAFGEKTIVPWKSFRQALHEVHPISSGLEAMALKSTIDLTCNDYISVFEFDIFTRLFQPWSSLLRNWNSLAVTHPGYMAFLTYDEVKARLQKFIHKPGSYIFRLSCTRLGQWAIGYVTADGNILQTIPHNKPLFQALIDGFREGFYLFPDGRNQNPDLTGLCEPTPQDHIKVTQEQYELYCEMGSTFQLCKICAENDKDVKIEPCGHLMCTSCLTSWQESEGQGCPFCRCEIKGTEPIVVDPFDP

T2: CBL TKBD (Homo sapiens, UniProt P22681)
T2 construct: with CBL (47-357) cloned in frame into MCS2 of the same pETDuet-1 vector; made in house
T2 sequence (P22681 47-357): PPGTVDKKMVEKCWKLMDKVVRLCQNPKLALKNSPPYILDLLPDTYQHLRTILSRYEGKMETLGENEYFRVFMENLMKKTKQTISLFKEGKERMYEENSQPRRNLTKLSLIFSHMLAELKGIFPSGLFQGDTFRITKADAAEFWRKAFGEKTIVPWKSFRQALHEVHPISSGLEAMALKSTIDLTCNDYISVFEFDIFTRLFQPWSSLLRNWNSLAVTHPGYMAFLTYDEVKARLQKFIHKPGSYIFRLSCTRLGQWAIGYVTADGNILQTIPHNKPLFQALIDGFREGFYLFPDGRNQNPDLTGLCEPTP


Tests used:
[1] = target: T1, CBL TKBD-LHR-RING (2-436), unphosphorylated; assay: In vitro ubiquitination assay, anti-ubiquitin immunoblot; assay type: biochemical; conditions: added to unphosphorylated CBL; 20 pmol CBL, 60 pmol SLAP2/pSLAP2
From the text: Given that binding of SLAP2 and the LHR-RING would be mutually exclusive (FIG. 8C), we reasoned that binding of SLAP2 to CBL could displace the LHR-RING, thereby promoting the catalytically competent conformation. To test this hypothesis, an in vitro ubiquitination assay in which E3 ligase activity is detected by a smear at high molecular weight on an anti-ubiquitin (Ub) immunoblot was employed. […] To further compare and quantify CBL ubiquitin ligase activity, a chemiluminescence based assay which measures the total amount of polyubiquitylated products formed in an in vitro reaction was used. In this assay, production of polyubiquitylated proteins increased upon addition of SLAP2 or pSLAP2 to CBL, compared to CBL alone (FIG. 9C and FIG. 10A).
In vitro ubiquitination reactions were prepared with 20 pmol of CBL or pCBL and 60 pmol of hSLAP2 or phosphorylated hSLAP2 (pSLAP2) for both WT and mutants. Reagents were thawed and reactions prepared on ice. CBL and SLAP2 were mixed in PBS (with 5 mM βME, 5 mM caproic acid, 0.5 mM PMSF, and 0.5 mM Na3VO4) at rt for 5-10 min before addition of master mix (42 pmol E1 (UBE1, Boston Biochem or Ubiquitin-Proteasome Biotechnologies), 0.1 µmol E2 (UbcH5b/UBE2D2, Boston Biochem #E2-622), […], and 11.6 µmol ubiquitin (Boston Biochem #U-100H) in reaction buffer (0.2 M Tris pH 7.5, 10 mM MgCl2, 2 mM DTT). Reactions were incubated at 30° C. shaking at 500-700 rpm for 60-110 minutes and terminated by addition of SDS 2X loading buffer and boiling for 5-10 minutes. Equal volumes of each reaction were loaded on 12.5% SDS-PAGE gel, transferred to PVDF membrane, and immunoblotted for ubiquitin as per standard protocols (anti-ubiquitin antibody P4G7, BioLegend #838701, 1:1000; anti-mouse IgG HRP-linked antibody, Cell Signaling Technology #7076, 1:10000; Western Lightning Plus ECL, Perkin Elmer).

CBL TKBD = target: T2, CBL TKBD; assay: Co-purification of CBL TKBD with Trx-His-SLAP2/SLAP (Duet co-expression, Ni-NTA, SDS-PAGE); assay type: binding
From the text: To validate the CBL/SLAP2 binding interface, a series of mutants in a Duet co-expression vector system was generated for co-purification trials. The SLAP2 sequence was preceded by thioredoxin (Trx) and His-tag fusion proteins to allow co-purification of CBL TKBD that was bound to Trx-His-SLAP2 during the initial affinity chromatography purification step. Surface residues deemed to be important to the CBL/SLAP2 interface, but not CBL function or folding, were mutated to disrupt CBL/SLAP2 binding (FIG. 5C and FIG. 6). In our structure, SLAP2 Gly240 locates close to CBL Met269 and Ala270, such that mutation to a bulky Arg residue (G240R) could cause sterical constraints. Similarly, SLAP2 Leu241 is situated in a hydrophobic cleft composed of CBL Ala223, Trp258, and Val263; mutation to Arg (L241R) was predicted to disturb this binding pocket. Mutation of CBL Ala223 to Arg (A223R) would likewise disrupt this pocket, with CBL/SLAP2 double mutant A223R/L241R predicted to drastically disturb binding through sterical constraints and charge repulsion. (For clarity, CBL mutations herein are indicated in italics, SLAP2 in regular font.) Similarly, single or double mutation of CBL Ser226 or SLAP2 Ser244, whose side chain hydroxyl groups are in close proximity to one another, to charged Glu residues (S226E and S244E) was anticipated to interfere with CBL/SLAP2 binding. Finally, given that SLAP2 binds CBL as an α-helix, mutation of Leu245, located in the center of this α-helix, to proline (L245P) was expected to interrupt the helical structure and thus prevent SLAP2 binding. […] However, double mutation of the CBL/SLAP2 interface (A223R/L241R and S226E/S244E; FIG. 5D, lower panel) was not tolerated, even at low salt concentration.
For co-purification of CBL and SLAP2/SLAP, Duet-His-hSLAP2-CBL 29-261 Δ198-229 and 29-254 Δ198-229, Duet-His-Δlinker-hSLAP2-CBL WT and point mutants, and Duet-His-mSLAP-CBL WT and point mutants were overexpressed in E. coli BL-21 as above or TKB1 competent cells (Stratagene) as per manufacturer’s instructions, and cells harvested as above (except 100 mL of LB, overnight at 16-18° C., and 0.35-0.5 mM IPTG induction). Cell pellets were resuspended in either high or low salt (as for high salt except 25 mM HEPEs pH 7.5, 150 mM NaCl) lysis buffer and purified as above on Ni-NTA agarose (Qiagen) with wash buffer (25 mM HEPEs pH 7.5, 150 mM NaCl, 2% glycerol, 20 mM imidazole, 10 mM βME). Bead slurry was mixed with SDS 2X loading buffer (125 mM Tris pH 6.8, 4% SDS, 20% glycerol, 0.715 M βME, bromophenol blue), boiled, and analyzed by 10 or 12.5% SDS-PAGE, stained with Coomassie blue.

CBL TKBD co-purification (CBL TKBD; conditions where SLAP2 was tyrosine phosphorylated (TKB1), low salt) | CBL TKBD co-purification (CBL TKBD; high salt conditions (0.5 M NaCl)) | Molecule | CBL ubiquitination activity (anti-Ub immunoblot) [1]
co-purified | – | pSLAP2: tyrosine phosphorylated SLAP2 expressed in TKB1 cells (protein, UniProt Q9H6Q3 2-261, looked up, tyrosine phosphorylated, tyrosine phosphorylated SLAP2 expressed in TKB1 cells) Src-like-adapter 2: GSLPSRRKSLPSPSLSSSVQGQGPVTMEAERSKATAVALGSFPAGGPAELSLRLGEPLTIVSEDGDWWTVLSEVSGREYNIPSVHVAKVSHGWLYEGLSREKAEELLLLPGNPGGAFLIRESQTRRGSYSLSVRLSRPASWDRIRHYRIHCLDNGWLYISPRLTFPSLQALVDHYSELADDICCLLKEPCVLQRAGPLPGKDIPLPVTVQRTPLNWKELDSSLLFSEAATGEESLLSEGLRESLSFYISLNDEAVSLDDA | stimulated CBL ubiquitination activity; also recorded: promote CBL ubiquitination activity to a greater extent than the addition of SLAP2
– | co-purified | Trx-His(6)-Δlinker-hSLAP2 (human SLAP2 29-261) (other, also called Trx-His-SLAP2; SLAP2 WT; not shown: N-terminal thioredoxin (Trx)-His(6)-TEV-site tag and linker of the modified pET32a (Δlinker version)) EAERSKATAVALGSFPAGGPAELSLRLGEPLTIVSEDGDWWTVLSEVSGREYNIPSVHVAKVSHGWLYEGLSREKAEELLLLPGNPGGAFLIRESQTRRGSYSLSVRLSRPASWDRIRHYRIHCLDNGWLYISPRLTFPSLQALVDHYSELADDICCLLKEPCVLQRAGPLPGKDIPLPVTVQRTPLNWKELDSSLLFSEAATGEESLLSEGLRESLSFYISLNDEAVSLDDA | stimulated CBL ubiquitination activity
